Laboratory results: paper PMC2366074

Biological target: T1, inositol monophosphatase (IMPase) (UniProt P29218)
T1 sequence: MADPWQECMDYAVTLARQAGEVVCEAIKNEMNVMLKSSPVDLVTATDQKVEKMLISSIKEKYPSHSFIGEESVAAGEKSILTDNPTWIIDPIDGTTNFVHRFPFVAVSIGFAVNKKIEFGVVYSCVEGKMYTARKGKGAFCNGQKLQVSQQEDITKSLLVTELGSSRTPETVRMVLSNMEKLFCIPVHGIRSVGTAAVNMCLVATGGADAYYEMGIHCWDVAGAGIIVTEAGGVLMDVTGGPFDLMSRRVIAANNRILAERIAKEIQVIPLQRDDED

B1: recombinant calbindin (natural protein)
chain: MAESHLQSSLITASQFFEIWLHFDADGSGYLEGKELQNLIQELQQARKKAGLELSPEMKTFVDQYGQRDDGKIGIVELAHVLPTEENFLLLFRCQQLKSCEEFMKTWRKYDTDHSGFIETEELKNFLKDLLEKANKTVDDTKLAEYTDLMLKLFDSNNDGKLELTEMARLLPVQENFLLKFQGIKMCGKEFNKAFELYDQDGNGYIDENELDALLKDLCEKNKQDLDINNITTYKKNIMALSDGGKLYRTDLALILCAGDN
  IMPase activity in brain homogenates (Pi release from inositol-1-phosphate) with 20 uM recombinant calbindin: 1.66 fold
